Reference: article PMC2642718

Target: CD43 (leukosialin) on the surface of primary human neutrophils (human (endogenous in primary neutrophils)) (UniProt P16150)
Sequence of UniProt P16150 (P16150 20-400): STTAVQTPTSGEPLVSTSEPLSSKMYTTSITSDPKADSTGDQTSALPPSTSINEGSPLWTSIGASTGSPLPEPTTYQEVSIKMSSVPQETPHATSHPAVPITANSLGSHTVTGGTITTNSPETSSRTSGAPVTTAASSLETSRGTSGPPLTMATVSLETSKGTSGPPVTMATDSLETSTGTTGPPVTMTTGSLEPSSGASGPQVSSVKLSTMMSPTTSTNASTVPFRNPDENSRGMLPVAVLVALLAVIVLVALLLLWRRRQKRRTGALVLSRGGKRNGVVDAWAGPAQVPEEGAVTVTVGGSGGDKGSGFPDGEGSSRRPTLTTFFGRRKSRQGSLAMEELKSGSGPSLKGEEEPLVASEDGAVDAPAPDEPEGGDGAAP

Substance | migration of human neutrophils across Fbg-coated transwell filters toward fMLP, 25 µg/mL protein (fold reduction)
StcE (Secreted protease of C1-esterase inhibitor), recombinant purified protein (from UniProt O82882 36-898) (enzyme) | 1.7
StcE E435D, proteolytically inactive point mutant (from UniProt O82882 36-898) (enzyme) | 1.7
